From patent publication US20190376079A1 (WHITEHEAD INSTITUTE FOR BIOMEDICAL RESEARCH, published 2019)

Target: SBP-tagged EF2 purified from WDR85 deficient (WDR85GT) cells (human, UniProt P13639 1-858)
Test: co-purification with SBP-tagged EF2 on streptavidin sepharose from WDR85GT cells; silver stain, mass spectrometry, immunoblot
Excerpt: Proteins were separated using SDS-PAGE gel electrophoreses and visualized using silverstaining. For mass spectrometry, the EF2 band was purified from gel and digested using trypsin.

B1: DPH5 (enzyme)
chain: MLYLIGLGLGDAKDITVKGLEVVRRCSRVYLEAYTSVLTVGKEALEEFYGRKLVVADREEVEQEADNILKDADISDVAFLVVGDPFGATTHSDLVLRATKLGIPYRVIHNASIMNAVGCCGLQLYKFGETVSIVFWTDTWRPESFFDKVKKNRQNGMHTLCLLDIKVKEQSLENLIKGRKIYEPPRYMSVNQAAQQLLEIVQNQRIRGEEPAVTEETLCVGLARVGADDQKIAAGTLRQMCTVDLGEPLHSLIITGGSIHPMEMEMLSLFSIPENSSESQSINGL
notes: also called methyltransferase DPH5
binding result: binds
